Measurements reported in patent US20240228562A1 (Pieris, published 2024).
Values belong to the binder of their own block, whether it stands above or below them.

Assays:
huNOV = target: T1, huNOV (human, UniProt P48745 32-357, limits assumed); assay: ELISA, coated CCN protein
T1 construct: also called human NOV (CCN3)
T1 sequence (looked up): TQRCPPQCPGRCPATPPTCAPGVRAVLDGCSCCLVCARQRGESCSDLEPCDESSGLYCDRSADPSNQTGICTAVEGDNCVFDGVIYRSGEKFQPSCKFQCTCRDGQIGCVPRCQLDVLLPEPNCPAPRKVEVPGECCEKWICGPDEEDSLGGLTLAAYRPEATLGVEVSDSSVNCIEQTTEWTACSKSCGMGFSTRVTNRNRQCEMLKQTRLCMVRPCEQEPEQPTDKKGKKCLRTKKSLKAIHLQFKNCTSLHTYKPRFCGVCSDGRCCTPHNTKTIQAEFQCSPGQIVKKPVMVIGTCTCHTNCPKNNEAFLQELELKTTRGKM
Experimental: (§1) Binding of muteins to closely related proteins of CTGF was tested by an ELISA assay. In detail, a 384-well plate suitable for fluorescence measurements (Greiner FLUOTRAC™ 600, black flat bottom, high-binding) was coated with 20 μl of human CTGF or the other members of the CCN protein family at a concentration of 1 μg/ml in PBS over night at 4° C. After washing with PBS with 0.05% Tween 20, wells were blocked with 100 μl blocking buffer containing 0.1% Tween 20 and 2% BSA (PBS-T/BSA) for 1 h at room temperature. 20 μl of serially diluted muteins starting at 1000 nM were incubated in PBS-T/BSA for 1 h at room temperature (RT).
(§2) The residual supernatants were discarded and 20 μl HRP-labeled anti-NGAL or anti-Strep-Tag antibody was added at a predetermined optimal concentration in PBS-T/BSA and incubated for 1 h at RT. After washing, 20 μl fluorogenic HRP substrate (QuantaBlu, Thermo) was added to each well, and the reaction was allowed to proceed for 2 to 60 minutes. The fluorescence intensity of every well on the plate was read using a fluorescence microplate reader (Tecan). When the signal for human CTGF approached saturation, the cross reactivity to the other proteins was assessed.

huWISP-2 = target: T2, huWISP-2 (human, UniProt O76076 24-250, limits assumed); assay: ELISA, coated CCN protein
T2 construct: also called human WISP-2 (CCN5)
T2 sequence (looked up): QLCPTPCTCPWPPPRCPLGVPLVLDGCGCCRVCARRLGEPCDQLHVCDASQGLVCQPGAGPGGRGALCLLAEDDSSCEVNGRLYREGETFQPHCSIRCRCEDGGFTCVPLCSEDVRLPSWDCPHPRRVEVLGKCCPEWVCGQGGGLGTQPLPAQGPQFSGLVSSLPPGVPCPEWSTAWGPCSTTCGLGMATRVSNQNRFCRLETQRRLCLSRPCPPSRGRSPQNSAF
Experimental: as §1, §2

huCYR61 = target: T3, huCYR61 (human, UniProt O00622 25-381, limits assumed); assay: ELISA, coated CCN protein
T3 construct: also called human CYR61 (CCN1)
T3 sequence (looked up): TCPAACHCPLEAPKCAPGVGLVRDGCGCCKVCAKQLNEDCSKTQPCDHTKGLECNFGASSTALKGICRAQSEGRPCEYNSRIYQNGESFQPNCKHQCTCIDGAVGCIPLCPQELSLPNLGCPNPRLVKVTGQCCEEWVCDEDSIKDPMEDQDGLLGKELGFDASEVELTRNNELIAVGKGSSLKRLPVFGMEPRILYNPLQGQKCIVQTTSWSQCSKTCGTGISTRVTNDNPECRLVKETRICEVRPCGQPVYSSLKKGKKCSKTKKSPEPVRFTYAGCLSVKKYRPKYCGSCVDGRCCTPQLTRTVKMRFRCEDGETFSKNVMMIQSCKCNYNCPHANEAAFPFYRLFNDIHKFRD
Experimental: as §1, §2

huWISP-1 = target: T4, huWISP-1 (human, UniProt O95388 23-367, limits assumed); assay: ELISA, coated CCN protein
T4 construct: also called human WISP-1 (CCN4)
T4 sequence (looked up): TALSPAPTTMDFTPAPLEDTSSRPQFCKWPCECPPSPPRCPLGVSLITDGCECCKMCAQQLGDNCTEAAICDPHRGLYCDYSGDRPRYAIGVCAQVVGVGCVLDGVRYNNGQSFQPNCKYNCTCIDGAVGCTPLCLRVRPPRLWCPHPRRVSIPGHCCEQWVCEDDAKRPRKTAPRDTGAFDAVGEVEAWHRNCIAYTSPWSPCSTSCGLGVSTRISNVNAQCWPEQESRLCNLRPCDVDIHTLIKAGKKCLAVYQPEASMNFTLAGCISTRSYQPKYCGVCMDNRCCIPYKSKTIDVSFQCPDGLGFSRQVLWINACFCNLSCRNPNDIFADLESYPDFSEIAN
Experimental: as §1, §2

huWISP-3 = target: T5, huWISP-3 (human, UniProt O95389 24-354, limits assumed); assay: ELISA, coated CCN protein
T5 construct: also called human WISP-3 (CCN6)
T5 sequence (looked up): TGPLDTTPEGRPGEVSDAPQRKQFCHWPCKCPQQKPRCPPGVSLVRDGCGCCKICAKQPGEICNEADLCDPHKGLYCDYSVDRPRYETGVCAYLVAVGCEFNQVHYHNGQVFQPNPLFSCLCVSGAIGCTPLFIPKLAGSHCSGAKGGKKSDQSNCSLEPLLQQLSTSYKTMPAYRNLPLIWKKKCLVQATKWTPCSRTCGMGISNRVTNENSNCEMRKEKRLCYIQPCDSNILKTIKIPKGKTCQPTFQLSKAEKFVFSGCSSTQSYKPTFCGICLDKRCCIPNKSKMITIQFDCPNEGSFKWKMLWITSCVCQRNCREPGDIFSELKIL
Experimental: as §1, §2

[1] = target: T6, recombinant human CTGF-Fc protein (Creative Biomart) (human); assay: SPR (Biacore)
T6 construct: Bought; also called human CTGF with a human IgG1 Fc Tag
T6 sequence (chain, as listed by the source limits assumed): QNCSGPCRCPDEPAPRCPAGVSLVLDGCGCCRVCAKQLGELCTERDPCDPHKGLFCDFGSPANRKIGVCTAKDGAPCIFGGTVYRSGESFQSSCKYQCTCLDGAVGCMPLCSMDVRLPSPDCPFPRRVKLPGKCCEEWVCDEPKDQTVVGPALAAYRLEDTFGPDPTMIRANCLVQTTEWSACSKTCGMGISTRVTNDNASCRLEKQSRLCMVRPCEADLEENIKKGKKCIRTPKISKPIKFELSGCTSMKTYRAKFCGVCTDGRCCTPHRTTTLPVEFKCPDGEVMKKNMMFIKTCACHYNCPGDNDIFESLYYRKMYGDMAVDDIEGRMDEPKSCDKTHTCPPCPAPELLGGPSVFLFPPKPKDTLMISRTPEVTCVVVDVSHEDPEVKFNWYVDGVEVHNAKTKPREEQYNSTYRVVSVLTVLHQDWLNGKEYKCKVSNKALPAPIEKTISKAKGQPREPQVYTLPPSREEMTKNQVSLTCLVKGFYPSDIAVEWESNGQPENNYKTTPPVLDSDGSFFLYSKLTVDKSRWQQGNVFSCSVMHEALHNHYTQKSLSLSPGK
Experimental: (§3) The binding of exemplary lipocalin muteins to human (Creative Biomart), cynomolgus, rat (R&D Systems) and mouse CTGF (Abbexa) was determined by SPR using a Biacore instrument (Cytiva, formerly GE Healthcare). Some targets were fused to a human IgG1 Fc tag, and captured via the anti-human IgG antibody kit, others were directly immobilized.
(§4) For some measurements, human CTGF with a human IgG1 Fc Tag or rat or murine CTGF without a tag were directly immobilized to a CM5 Chip. The carboxyl groups on the chip were activated using 1-ethyl-3-(3-dimethylaminopropyl)-carbodiimide (EDC) and N-hydroxysuccinimide (NHS). […] Residual non-reacted NHS-esters were blocked by passing a solution of 1 M ethanolamine across the surface. The reference channel was activated/deactivated. For the capture setting, targets with an IgG Fc Tag at 0.25-2.5 μg/mL in HBS-EP+ buffer were captured by the anti-human IgG-Fc antibody at the chip surface for 180 s at a flow rate of 10 μL/min.
(§5) The binding assay was carried out with a contact time of 180 s, a dissociation time of 900-3600 s and a flow rate of 30 μL/min. All measurements were performed at 25° C. […] For the directly immobilized targets, the same regeneration conditions were used. Prior to the protein measurements, three startup cycles were performed for conditioning purposes.

[2] = target: T7, CTGF expressed by TGF-β1-stimulated normal human lung fibroblasts (NHLFs) (human, UniProt P29279 27-349); assay: immunofluorescence staining of the lipocalin scaffold (AlexaFluor647 secondary antibody) on NHLFs incubated 24 h with the construct and 10 ng/ml TGF-β1; signal normalised to the NGAL control
T7 construct: whole, on cells; Cells grown under conditions that facilitate pseudo-3D extracellular matrix deposition; also called CTGF-expressing NHLFs
T7 sequence (looked up): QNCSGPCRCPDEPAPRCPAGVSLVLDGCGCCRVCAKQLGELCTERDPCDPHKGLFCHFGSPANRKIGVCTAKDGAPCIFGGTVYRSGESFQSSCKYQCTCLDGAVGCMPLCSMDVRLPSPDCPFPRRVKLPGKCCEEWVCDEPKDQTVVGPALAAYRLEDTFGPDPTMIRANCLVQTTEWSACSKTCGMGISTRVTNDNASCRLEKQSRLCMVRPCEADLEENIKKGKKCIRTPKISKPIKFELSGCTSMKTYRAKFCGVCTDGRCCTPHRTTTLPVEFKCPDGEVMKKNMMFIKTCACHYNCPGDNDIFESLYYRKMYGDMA

[3] = target: T8, recombinant rat CTGF protein (R&D Systems) (rat, UniProt Q9R1E9 25-347); assay: SPR (Biacore); B = binding without determination of kinetics constants
T8 construct: Bought; also called rCTGF
T8 sequence: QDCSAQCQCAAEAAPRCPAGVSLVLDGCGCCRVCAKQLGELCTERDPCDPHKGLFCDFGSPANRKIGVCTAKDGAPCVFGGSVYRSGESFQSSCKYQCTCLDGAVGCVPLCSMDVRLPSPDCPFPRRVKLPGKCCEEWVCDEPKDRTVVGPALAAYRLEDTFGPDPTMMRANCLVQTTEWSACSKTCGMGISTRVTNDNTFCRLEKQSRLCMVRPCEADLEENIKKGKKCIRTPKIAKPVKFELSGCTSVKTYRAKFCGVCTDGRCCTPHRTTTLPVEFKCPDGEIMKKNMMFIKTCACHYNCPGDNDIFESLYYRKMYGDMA
Experimental: as §3, §4, §5

Kd [1]: 0.077 nM
koff [1]: 9.42e-06 s⁻¹
kon [1]: 122000 M⁻¹ s⁻¹
binding result [2]: binds
B1: lipocalin mutein of SEQ ID NO: 23 (designed binder)
chain: QDSTSDLIPAPPLSKVPLQQNFQDNQFQGKWYVVGVAGNAILRPDKQPAKMFATIYELKEDKSYDVTSVRFEAKSCKYTIKTFVPGSQPGEFTSGQIKSAPGQTSTLVRVVSTNYNQHAMVFFKHVSQNREIFVITLYGRTKELTSELKENFIRFSKSLGLPENHIVFPVPIDQCIDG
notes: also called hNGAL mutein
binding result (huNOV): no binding (tested: dilutions starting at 1000 nM)
binding result (huWISP-2): no binding (tested: dilutions starting at 1000 nM)
binding result (huCYR61): no binding (tested: dilutions starting at 1000 nM)
binding result (huWISP-1): no binding (tested: dilutions starting at 1000 nM)
binding result (huWISP-3): no binding (tested: dilutions starting at 1000 nM)

binding result [3]: binds
Kd [1]: 0.514 nM
koff [1]: 0.000149 s⁻¹
kon [1]: 290000 M⁻¹ s⁻¹
B2: lipocalin mutein of SEQ ID NO: 6 (designed binder)
chain: QDSTSDLIPAPPLSKVPLQQNFQDNQFQGKWYVVGRAGNNQLREDKSPPKMWATIYELKEDKSYDVTHVHFSTKKCRYIIDTFVPGSQPGEFTAGAIKSGPGLTSPLVRVVSTNYNQHAMVFFKWVTQNREWFTITLYGRTKELTSELKENFIRFSKSLGLPENHIVFPVPIDQCIDG
notes: also called hNGAL mutein; not shown: C-terminal His-tag
